Measured values reported in patent publication US20230340128A1 (Xencor, published 2023).

Key:
[1] = biological target: MSLN on OVCAR8 cells (~90K MSLN antigens/cell) (UniProt Q13421 296-598); assay: binding to OVCAR8 cells, MFI APC against mAb concentration
[2] = biological target: T1, human mesothelin (MSLN) (human, UniProt Q13421 296-580, limits assumed); assay: KD quoted in the FIG. 25 legend; Octet (BLI) per FIGS. 20-21
T1 construct: Antigen of the Octet KD values

[3] = biological target: T1, human mesothelin (MSLN); assay: label in the legend box: nominal affinity of the MSLN binding domain (paragraph 422 calls such label values KD); method not stated on the sheet
[4] = biological target: T2, human CD28 (human, UniProt P10747 19-152, limits assumed); assay: label in the legend box: nominal affinity of the CD28 binding domain (paragraph 422 calls such label values KD); method not stated on the sheet
T2 construct: also called Cluster of Differentiation 28; Tp44

B1: XENP32751 (bispecific antibody)
chain 1: QVQLVQSGAEVKKPGASVKVSCKASGYTFTSYWMHWVRQAPGQGLEWMGMIHPNSDNTIYYEKFQGRVTMTVDKSISTAYMELSRLRSDDTAVYYCAIIITPVVPKFDYWGQGTLVTVSSASTKGPSVFPLAPSSKSTSGGTAALGCLVKDYFPEPVTVSWNSGALTSGVHTFPAVLQSSGLYSLSSVVTVPSSSLGTQTYICNVNHKPSDTKVDKKVEPKSCDKTHTCPPCPAPPVAGPSVFLFPPKPKDTLMISRTPEVTCVVVDVKHEDPEVKFNWYVDGVEVHNAKTKPREEEYNSTYRVVSVLTVLHQDWLNGKEYKCKVSNKALPAPIEKTISKAKGQPREPQVYTLPPSREEMTKNQVSLTCDVSGFYPSDIAVEWESDGQPENNYKTTPPVLDSDGSFFLYSKLTVDKSRWEQGDVFSCSVMHEALHNHYTQKSLSLSPGK
chain 2: QVQLVQSGAEVKKPGASVKVSCKASGYTFTSYWMHWVRQAPGQGLEWMGMIHPNSDNTIYYEKFQGRVTMTVDKSISTAYMELSRLRSDDTAVYYCAIIITPVVPKFDYWGQGTLVTVSSASTKGPSVFPLAPSSKSTSGGTAALGCLVKDYFPEPVTVSWNSGALTSGVHTFPAVLQSSGLYSLSSVVTVPSSSLGTQTYICNVNHKPSNTKVDKKVEPKSCGGGGSGGGGSQAVVTQEPSLTVSPGGTVTLTCGSSTGAVTTSNYANWVQQKPGKSPRGLIGGTNKRAPGVPARFSGSLLGGKAALTISGAQPEDEADYYCALWYSNHWVFGGGTKLTVLGKPGSGKPGSGKPGSGKPGSEVQLVESGGGLVQPGGSLRLSCAASGFTFSTYAMNWVRQAPGKGLEWVGRIRSKANNYATYYADSVKGRFTISRDDSKNTLYLQMNSLRAEDTAVYYCVRHGNFGDSYVSWFAYWGQGTLVTVSSGGGGSGGGGSKTHTCPPCPAPPVAGPSVFLFPPKPKDTLMISRTPEVTCVVVDVKHEDPEVKFNWYVDGVEVHNAKTKPREEQYNSTYRVVSVLTVLHQDWLNGKEYKCKVSNKALPAPIEKTISKAKGQPREPQVYTLPPSREQMTKNQVKLTCLVKGFYPSDIAVEWESNGQPENNYKTTPPVLDSDGSFFLYSKLTVDKSRWQQGNVFSCSVMHEALHNHYTQKSLSLSPGK
chain 3: DIVMTQSPDSLAVSLGERATINCKASHDVGTYVAWYQQKPGQSPKLLIYWASTRHTGVPDRFTGSGSGTDFTLTISSLQAEDVAVYFCQQYSSYPLTFGAGTKLEIKRTVAAPSVFIFPPSDEQLKSGTASVVCLLNNFYPREAKVQWKVDNALQSGNSQESVTEQDSKDSTYSLSSTLTLSKADYEKHKVYACEVTHQGLSSPVTKSFNRGEC
EC50 (read off the curve) [1]: ~0.05 µg/mL | Kd [2]: ~12.8 nM

B2: XENP39569 (bispecific antibody)
heavy: QVQLVQSGAEVKKPGASVKVSCKASGYTFTSYWMHWVRQAPGQGLEWMGWIHPNSDNTIYYEKFQGRVTMTVDKSISTAYMELSRLRSDDTAVYYCAIIITPVVPKFDYWGQGTLVTVSSASTKGPSVFPLAPSSKSTSGGTAALGCLVKDYFPEPVTVSWNSGALTSGVHTFPAVLQSSGLYSLSSVVTVPSSSLGTQTYICNVNHKPSDTKVDKKVEPKSCDKTHTCPPCPAPPVAGPSVFLFPPKPKDTLMISRTPEVTCVVVDVKHEDPEVKFNWYVDGVEVHNAKTKPREEEYNSTYRVVSVLTVLHQDWLNGKEYKCKVSNKALPAPIEKTISKAKGQPREPQVYTLPPSREEMTKNQVSLTCDVSGFYPSDIAVEWESDGQPENNYKTTPPVLDSDGSFFLYSKLTVDKSRWEQGDVFSCSVLHEALHSHYTQKSLSLSPGK
scFv-Fc: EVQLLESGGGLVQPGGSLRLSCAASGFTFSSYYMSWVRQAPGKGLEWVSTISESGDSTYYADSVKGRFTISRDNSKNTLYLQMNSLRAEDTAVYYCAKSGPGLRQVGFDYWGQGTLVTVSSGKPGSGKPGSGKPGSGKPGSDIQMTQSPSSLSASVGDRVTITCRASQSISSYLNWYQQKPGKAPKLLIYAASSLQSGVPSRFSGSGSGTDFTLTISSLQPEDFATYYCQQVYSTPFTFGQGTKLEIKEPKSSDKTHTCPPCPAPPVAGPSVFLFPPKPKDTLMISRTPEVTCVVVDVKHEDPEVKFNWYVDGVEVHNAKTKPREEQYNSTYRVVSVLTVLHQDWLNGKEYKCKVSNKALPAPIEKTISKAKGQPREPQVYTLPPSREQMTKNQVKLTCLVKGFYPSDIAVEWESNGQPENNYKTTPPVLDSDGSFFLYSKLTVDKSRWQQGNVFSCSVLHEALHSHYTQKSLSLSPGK
light: DIVMTQSPDSLAVSLGERATINCKASHDVGQSVAWYQQKPGQSPKLLIYWASTRHTGVPDRFTGSGSGTDFTLTISSLQAEDVAVYFCQQYSSYPLTFGAGTKLEIKRTVAAPSVFIFPPSDEQLKSGTASVVCLLNNFYPREAKVQWKVDNALQSGNSQESVTEQDSKDSTYSLSSTLTLSKADYEKHKVYACEVTHQGLSSPVTKSFNRGEC
notes: also called XENP39569 MSLN (90 nM) x CD28 (37 nM) 1+1
Kd [3]: 90 nM | Kd [4]: 37 nM
